# Measurements published in the supplement of paper PMC9170038.
# System: K4 kissing-loop RNA reporter
# Assay: apparent KD of K4 kissing-loop reporter; higher = weaker reporter binding
# Conditions: Eterna round: R107
# Method: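 RNA-MaP round R107: designed RNA switches with theophylline, tryptophan, arginine or FMN aptamers are transcribed on-chip within common flanks. They are titrated with a labelled K4 kissing-loop RNA reporter in RNA-MaP buffer (100 mM Tris pH 7.5, 80 mM KCl, 4 mM MgCl2), without ligand or with the indicated ligand. Median apparent KD per design.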
# [1] = input ligand: theophylline 20 uM
# [2] = input ligand: tryptophan 2.4 mM
# 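Further: bound reporter read as fluorescence of individual clusters on recovered sequencing chips by microscopy, with normalized cluster intensities fitted with a binding model.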
Sequence,apparent KD of K4 kissing-loop reporter (input ligand: FMN 200 uM) [nM],apparent KD of K4 kissing-loop reporter (input ligand: arginine 13.2 mM) [nM],apparent KD of K4 kissing-loop reporter (input ligand: none) [nM],apparent KD of K4 kissing-loop reporter [1] [nM],apparent KD of K4 kissing-loop reporter [2] [nM]
UGUACCGAGUCAGGAUAUGGCGUCGAAAGACGAAUUCUAGUGAUGUUAGGGAUCUGCGAAAGCAGUCCAGAAGGGACUUGGUACU [FmnBS 26 U36],322,439,607,692,542
CGUUUAUAGCAGGAUACCAGUACCCAUAAAGUACGUUAAUAGUAGAGUGAUGUUCUAAAGUACCCUUGGCAGCUUCCCGUGACCG [ExTheophylB.V],106,158,129,142,83.3
GCGCGUCAUGUCAGCGGUGACACUGUCGAUACCAGUGCCGCAAGGCGCCCUUGGCAGCGACGUGCUGGAGUGAUGUUCCAGCGUU [#2 Exclusion - Theophylline A Attempt #29 (HarryS)],156,122,161,152,124
AGGAUCCACCAGUGAUGUUGGAAAUACAUCAAGGAUAUGACGAAAGUCAGAAGGUGGUAGACUGGACAAAGUCCAGUUGGAUCCA [KL-SSFMN-A18],135,54.9,62.7,112,66.4
GGGAGUGAUGUUCCCGCGUUGACGGUCCUCCGAGGACCGGUACGGCCGCCACUCGAAACCCAGUGAUGUUGGGACUCACCGUACU [Exclusion Tryptophan A GF 11],511,504,511,620,435
GGGAUAGGAUCAGUGAUGUUGGUCCCAGAUACCAGACAAAGUCACGUCCCUUGGCAGCUGAUGAUCGCUGACGACCGGCCUCCAA [theeternabot_sameState_KL_Theo_A_7],259,218,262,219,256
GCGCGGCUCAGUGAUGUUGAGCCUCGGAGACGAGGACCGGUACGGCCGCCACUCGUCCGCGCAGCUGAGGCAAAAGCCUCGGCAA [Omei KL Tryp A SS B v3],201,195,189,186,141
AGGCACGAGCAAGGAUAUCGAGUAGAGUGAUGUUCUGCCUGGGUUGGCUCGCAAGGGCCUUCCCAGCGAGAAGGUGCUCGUGCCU [#2 Same State - FMN A Attempt #17 (HarryS)],277,743,772,745,830
AACUGUCAAGGACAACAUUACUGCAGUGAUACCAGCAUCGAAAGAUGCCCUUGGCAGCACCAACUUGCAGUGAUGUUGCAAGUAA [BrourdMod 5 - Jieux - Exclusion - Theophylline A],241,203,216,188,220
AAGGUCACUGCUACAGUGAUGUUGUGGGAGCAGGAUAUGCAGAAAUGCAGAAGGGCUCGCUCCAGGUGACCGAAUGAAACAUUCA [whbob_SS_FMNA__2th175],1070,826,1500,887,1000
UGAUAGGACAGAAGGAGCGGAAGUGAUGUUUCCAAAAGGAAAGGUCGACAAAGUCGACCCUUCCAGGUAGGUCGCUGUCCUAUCU [ArgBX 8 #Palindromic #SwitchBubble #StaticStem],88.2,90.5,82.9,84.9,81.5
GGCCCGGGCUCGGCCGCCACUCCCUCGUACCGCAAGGUAUGAUACCGAGUGAUGUUCGGUUGGAGGAGGACCGGGAGCCCGGGCC [#2 Exclusion - Tryptophan B Attempt #6 (HarryS)],116,118,106,101,102
GGCUUACUAGUGAUGUUAGUAUUUUCUGAAGGAGCGCGUGAAAACGCAGGUAGGUCGCAGAACCUUGCCAACUAUUUUAGUUGCC [Ex Arginine A K4 28],144,157,115,136,104
UAUAGAAACGUCCUAUCAGUAAAAUGGGAAGGAGCGAGGAAGGACUCAGGUAGGUCGCCCAAUAACCUUAGUGAUGUUAAGGAAA [Version 2],155,128,131,112,122
UUUUUGGAGAAUUAUAGUGAUGUUAUGAAGGAGGAUAUCUAAAGAUGGAGAAGGUUUAAUAGUUAAGGGAUGGAGGGUGGGUGGG [ExFMNA.Q],372,180,320,208,229
GCGCGCGGCGGAGGAUAUAGCAGGUGAUCCAAGAAAGUGAGUGAUGUUUAUGGAGAUGAUGAUAUGUUAGAAGGCCGCCGCGCGC [abcdefghijklmnopqrstu],803,448,626,847,474
UCUGUUGUAUAUGAUACCAGCAGUGAGAGACGAGAAGUAUAGUGAUGUUAUAUGAGAGAAUGCCCUUGGCAGCGUGUGCGUGUGG [SSTheophylB.aB],111,110,95.4,118,83.2
UGUGGAGGAUAUGAUACCAGCAGUGAGAGAGAGGAAGUAUAGUGAUGUUAUAUGAGAGAAUGCCCUUGGCAGCGUGUGUAGUGGG [SSTheophylB.K],184,137,146,176,145
UGGGAUGUUAAAGGAUAUAGCAGGUGAUAUAAGAAAGUGAGUGAUGUUUAUGUAGAUGAUGAUAUGUUAGAAGGUUAACAAAACG [abcdefghi],427,258,340,318,282
AAUAAUCUAGGUGAUACCAGCUCAACAUGAGUGAUGUUCGUGAGCUAAUGUAGAGUUGAGAGCCCUUGGCAGCACCUAGAUAAUA [KL-SSTheoB7],698,552,943,1140,626
AGUGAUGUUGUGUUAUGCUAGGGAAGUGAUCGAGGACCGGUACGGCCGCCACUCGAGUGAUGAGUGAGUGAUGUUUGUUUAGGGA [sdsmullin],1100,480,961,844,490
GGAUAGGACGGAGGAUAUGGUAGUGAUGUUACCAAACUGGUUAAACAUGUCAGAAAACUGGCAUGACCAGAAGGCCGUCCUAUCG [FmnBX 27 G10+C76],108,62.6,69.6,61.6,67.4

Sequence,apparent KD of K4 kissing-loop reporter (input ligand: FMN 200 uM) [nM],apparent KD of K4 kissing-loop reporter (input ligand: arginine 13.2 mM) [nM],apparent KD of K4 kissing-loop reporter (input ligand: none) [nM],apparent KD of K4 kissing-loop reporter [1] [nM],apparent KD of K4 kissing-loop reporter [2] [nM]
AGAUUCGACACGGCCGCCACUCGUGGUGGAUUAUCCUAUGUAAGACAUGAGUGAUGUUCAUGUACGAGGACCGGGUGUUGAGUCU [KL-XTryp-B5 #analogue],496,403,488,568,272
AGCGACUCGAAAGGGUCGCGGCUAAGGGAUACCAGUGAUGUUGGUCACCCUUGGCAGCCCAGAAGCCAAGCCACCAAAGGUGGCA [Omei KL Theo A Exc A v10],124,99,119,114,116
AAGGUCACCACUACAGUGAUGUUGUAGGAGCAGGAUAUGCAGAAAUGCAGAAGGGCUCGCUCCAGGUGACCGAAUGAAACAUUCA [Omei KL FMN A SS A v4],217,341,382,325,381
AAUUUAUUAACUGAUACCAGACUUAAUAAAUUGUAAAUUACUAGUGAUGUUAGUGAAUUUGUCCCUUGGCAGCAGUAUUUAUUAA [JR_ExcTheophyB_Sub009],123,133,124,141,106
UCCGGUCGGUGAGCCAGUGAUGUUGGUCAGAAGGAUAUCUGGCAACAGAGAAGGUCUGCAUCAGCCUAGAUAUCCUGGCGACCGG,145,91.4,79,84.2,69.2
AAUAAAAUCACGGCCGCCACUGAUUAUUUUAUUAGGAGUGAUGUUCCUAUGACAGUAUGCCUUAACAGGACCGGGUGAAUAUUUA [#19 K4 Tryptophan B Exclusion],122,125,144,143,156
ACGUCUCGUAAACUCGUGGUUUCGAUCGAUACCAGUAGCGAGAGUUACCCUUGGCAGCGACAUGAGUGAUGUUCAUGUACGAAGA [KL-XTheoA2],99.3,88.5,93.1,89.8,90.3
UCCAGCAGUACUGAUACCAGACUGCAUGUAGUGAUGUUGCAUAAGGGCAUAGAUGUCUCAGUCCCUUGGCAGCGGUACUGUUGCA [#09 K4 Theophylline B Same State],379,294,325,251,286
CGACGGAGUGAUGUUUCGUGGUAUGCUGAUACCAGAUGAAACAGCGUCCCUUGGCAGCAGCAUACGCCAAGGAUAAUAUCCUAGU [Theo B SS t6],1200,611,1770,531,604
GUUACGCAUGGAAGGAGCGCGAAAAUUUAUAGUGAGUGAUGUUCACAAAUAAGAAUAAUAACGCAGGUAGGUCGCCAUGUGUAAC [Ex Arginine B K4 5],87.1,86.8,105,118,95.2
AUUUUUUUAUCAGGAUAUUAGUGUUGGUUUGUUUUGUUAGUGAUGUUGAUAUUUGUUUUAUGUAUUUAAGAAGGGAUUGUGAUGU [huupullin],473,371,409,381,264
GCGUCACGUCGGGAUACCAGAGAAAUGGCAUUAGCCAAUGACGAGUGAUGUUCGUAGGCGCUCCCUUGGCAGCCCACCGGGAGGA [theeternabot_sameState_KL_Theo_B_21],351,218,311,340,278
GGAUAGGACAGAGGAUAUGGUAGUGAUGUUACCAAACUGGUUACUUUUGUCAGAAAACUGGCAUUUCCAGAAGGCUGUCCUAUCG [KL-XFMN-B12],287,71,68.6,58,68.3
GUGCAGUGAUGUUGCACGAGGAAAGACGAUACCAGCCGUAAAUAAGGCCCUUGGCAGCGUAGGCUAGCAUAAAGCAUGCUAGUCC [Edeson],131,98.8,111,98.4,78
UAACUUGCAGUGAUGUUGCAAGAACUGGAUACCAGCAUGGAAACAUGCCCUUGGCAGCCAGAAGGUAUCCUCUGCAAGAGAUACA [Design1],318,274,311,289,292
GGAGUCCCGUUAGAUUGUGUAGAUACAAGACGAGGACCGGUACGGCCGCCACUCGCCAUCGUCCAGUGAUGUUGGGCGUCACGGG [theeternabot_sameState_KL_Trp_A_30],262,179,235,227,219
AAAAUAACCCAGUGAUGUUGGUAUCCAGAUACCAGCGACGAAAGUCGCCCUUGGCAGCUGUGGACGUACAAAAUAAGUACGUCCU,903,395,403,545,612
AAAAUUGCGGUCGAAAGAACUUCUUGCAUACGAGGACCGGUACGGCCGCCACUCGAGUCAAGUGAUGUUUGAUAAUCUAUUAUUA [JR_ExcTryptoA_Sub012],151,225,215,296,212
GACCGGCCGACGAGUGAUGUUCGAUGGGAAGGAGCGCGAAGAAAUGCAGGUAGGUCGCCCUAAGUAAUUGAAACGGCCGGAUUAU [2.)],137,143,128,212,102
UGACAUUGCUCAGAUACCAGACAUGAGCAUCAGCCAUGUGCCAAAUAAACGUACAUAAAUGUCCCUUGGCAGCUGAGCAAUGUCU [TheoBX 11],53,33.2,38.3,118,64.9
CCUGCUACGUAAGGAUAUGGAAAUGAGUGAUGUUUAGAGAUAUGGUCCAGGUUUAGUCAUCAUAGACCAGAAGGUACAUCGGGCG [theeternabot_exclusion_KL_FMN_B_8],825,321,588,364,400
